From publication PMC3154423 come the findings set out here.

Common to all, as to experiment: ITC
For series [1], the target named is Jun bZIP R259A;Fos bZIP R143A (human;human, UniProt P05412;P01100 252-315;137-200, R259A|R143A).
Series [2] deals with Jun bZIP R261A;Fos bZIP R157A (human;human, UniProt P05412;P01100 252-315;137-200, R261A|R157A).
The target in series [3] is Jun bZIP K268A;Fos bZIP R157A (human;human, UniProt P05412;P01100 252-315;137-200, K268A|R157A).
Series [4] deals with Jun bZIP R270A;Fos bZIP R144A (human;human, UniProt P05412;P01100 252-315;137-200, R270A|R144A).
For series [5], the target named is Jun bZIP R263A;Fos bZIP R146A (human;human, UniProt P05412;P01100 252-315;137-200, R263A|R146A).
In series [6] the target is Jun bZIP K273A;Fos bZIP R143A (human;human, UniProt P05412;P01100 252-315;137-200, K273A|R143A).
The target of series [7] is Jun bZIP R272A;Fos bZIP R144A (human;human, UniProt P05412;P01100 252-315;137-200, R272A|R144A).
For series [8], the target named is Jun bZIP R270A;Fos bZIP R158A (human;human, UniProt P05412;P01100 252-315;137-200, R270A|R158A).
In the next series the target is Jun-Jun bZIP K268A (human, UniProt P05412 252-315, K268A).
In series [9] the target is Jun bZIP K268A;Fos bZIP R144A (human;human, UniProt P05412;P01100 252-315;137-200, K268A|R144A).
The target of series [10] is Jun bZIP K258A;Fos bZIP R157A (human;human, UniProt P05412;P01100 252-315;137-200, K258A|R157A).
The target of series [11] is Jun bZIP K268A;Fos bZIP K148A (human;human, UniProt P05412;P01100 252-315;137-200, K268A|K148A).
The target of series [12] is Jun bZIP R261A;Fos bZIP K153A (human;human, UniProt P05412;P01100 252-315;137-200, R261A|K153A).
For series [13], the target named is Jun bZIP R261A;Fos bZIP R155A (human;human, UniProt P05412;P01100 252-315;137-200, R261A|R155A).
Series [14] has as its target Jun bZIP R263A;Fos bZIP R157A (human;human, UniProt P05412;P01100 252-315;137-200, R263A|R157A).
The target of series [15] is Jun bZIP R270A;Fos bZIP R157A (human;human, UniProt P05412;P01100 252-315;137-200, R270A|R157A).
Sequence of Jun bZIP R270A;Fos bZIP R157A (P05412 252-315 R270A, chain 1 of 2): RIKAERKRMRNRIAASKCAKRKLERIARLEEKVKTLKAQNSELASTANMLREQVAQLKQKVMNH
Sequence of Jun bZIP R270A;Fos bZIP R157A (P01100 137-200 R157A, chain 2 of 2): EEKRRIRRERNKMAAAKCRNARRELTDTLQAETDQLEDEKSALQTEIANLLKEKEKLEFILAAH

Sequence of Jun bZIP R261A;Fos bZIP R155A (P05412 252-315 R261A, chain 1 of 2): as the sequence (P05412 252-315 R270A, chain 1 of 2) above, with R10A, A19R counted along it
Sequence of Jun bZIP R261A;Fos bZIP R155A (P01100 137-200 R155A, chain 2 of 2): as the sequence (P01100 137-200 R157A, chain 2 of 2) above, with R19A, A21R counted along it
Sequence of Jun bZIP R261A;Fos bZIP R157A (P05412 252-315 R261A, chain 1 of 2): as the sequence (P05412 252-315 R270A, chain 1 of 2) above, with R10A, A19R counted along it
Sequence of Jun bZIP R261A;Fos bZIP R157A (P01100 137-200 R157A, chain 2 of 2): as the sequence (P01100 137-200 R157A, chain 2 of 2) above
Sequence of Jun bZIP R261A;Fos bZIP K153A (P05412 252-315 R261A, chain 1 of 2): as the sequence (P05412 252-315 R270A, chain 1 of 2) above, with R10A, A19R counted along it
Sequence of Jun bZIP R261A;Fos bZIP K153A (P01100 137-200 K153A, chain 2 of 2): as the sequence (P01100 137-200 R157A, chain 2 of 2) above, with K17A, A21R counted along it
Sequence of Jun bZIP R270A;Fos bZIP R144A (P05412 252-315 R270A, chain 1 of 2): as the sequence (P05412 252-315 R270A, chain 1 of 2) above
Sequence of Jun bZIP R270A;Fos bZIP R144A (P01100 137-200 R144A, chain 2 of 2): as the sequence (P01100 137-200 R157A, chain 2 of 2) above, with R8A, A21R counted along it
Sequence of Jun bZIP R270A;Fos bZIP R158A (P05412 252-315 R270A, chain 1 of 2): as the sequence (P05412 252-315 R270A, chain 1 of 2) above
Sequence of Jun bZIP R270A;Fos bZIP R158A (P01100 137-200 R158A, chain 2 of 2): as the sequence (P01100 137-200 R157A, chain 2 of 2) above, with A21R, R22A counted along it
Sequence of Jun bZIP R263A;Fos bZIP R157A (P05412 252-315 R263A, chain 1 of 2): as the sequence (P05412 252-315 R270A, chain 1 of 2) above, with R12A, A19R counted along it
Sequence of Jun bZIP R263A;Fos bZIP R157A (P01100 137-200 R157A, chain 2 of 2): as the sequence (P01100 137-200 R157A, chain 2 of 2) above
Sequence of Jun bZIP R263A;Fos bZIP R146A (P05412 252-315 R263A, chain 1 of 2): as the sequence (P05412 252-315 R270A, chain 1 of 2) above, with R12A, A19R counted along it
Sequence of Jun bZIP R263A;Fos bZIP R146A (P01100 137-200 R146A, chain 2 of 2): as the sequence (P01100 137-200 R157A, chain 2 of 2) above, with R10A, A21R counted along it
Sequence of Jun bZIP K273A;Fos bZIP R143A (P05412 252-315 K273A, chain 1 of 2): as the sequence (P05412 252-315 R270A, chain 1 of 2) above, with A19R, K22A counted along it
Sequence of Jun bZIP K273A;Fos bZIP R143A (P01100 137-200 R143A, chain 2 of 2): as the sequence (P01100 137-200 R157A, chain 2 of 2) above, with R7A, A21R counted along it
Sequence of Jun bZIP R272A;Fos bZIP R144A (P05412 252-315 R272A, chain 1 of 2): as the sequence (P05412 252-315 R270A, chain 1 of 2) above, with A19R, R21A counted along it
Sequence of Jun bZIP R272A;Fos bZIP R144A (P01100 137-200 R144A, chain 2 of 2): as the sequence (P01100 137-200 R157A, chain 2 of 2) above, with R8A, A21R counted along it
Sequence of Jun bZIP R259A;Fos bZIP R143A (P05412 252-315 R259A, chain 1 of 2): as the sequence (P05412 252-315 R270A, chain 1 of 2) above, with R8A, A19R counted along it
Sequence of Jun bZIP R259A;Fos bZIP R143A (P01100 137-200 R143A, chain 2 of 2): as the sequence (P01100 137-200 R157A, chain 2 of 2) above, with R7A, A21R counted along it
Sequence of Jun bZIP K258A;Fos bZIP R157A (P05412 252-315 K258A, chain 1 of 2): as the sequence (P05412 252-315 R270A, chain 1 of 2) above, with K7A, A19R counted along it
Sequence of Jun bZIP K258A;Fos bZIP R157A (P01100 137-200 R157A, chain 2 of 2): as the sequence (P01100 137-200 R157A, chain 2 of 2) above
Sequence of Jun-Jun bZIP K268A (P05412 252-315 K268A): as the sequence (P05412 252-315 R270A, chain 1 of 2) above, with K17A, A19R counted along it
Sequence of Jun bZIP K268A;Fos bZIP R157A (P05412 252-315 K268A, chain 1 of 2): as the sequence (P05412 252-315 R270A, chain 1 of 2) above, with K17A, A19R counted along it
Sequence of Jun bZIP K268A;Fos bZIP R157A (P01100 137-200 R157A, chain 2 of 2): as the sequence (P01100 137-200 R157A, chain 2 of 2) above
Sequence of Jun bZIP K268A;Fos bZIP R144A (P05412 252-315 K268A, chain 1 of 2): as the sequence (P05412 252-315 R270A, chain 1 of 2) above, with K17A, A19R counted along it
Sequence of Jun bZIP K268A;Fos bZIP R144A (P01100 137-200 R144A, chain 2 of 2): as the sequence (P01100 137-200 R157A, chain 2 of 2) above, with R8A, A21R counted along it
Sequence of Jun bZIP K268A;Fos bZIP K148A (P05412 252-315 K268A, chain 1 of 2): as the sequence (P05412 252-315 R270A, chain 1 of 2) above, with K17A, A19R counted along it
Sequence of Jun bZIP K268A;Fos bZIP K148A (P01100 137-200 K148A, chain 2 of 2): as the sequence (P01100 137-200 R157A, chain 2 of 2) above, with K12A, A21R counted along it

B1: TRE duplex 15-mer (dsDNA)
DNA 1: CGCGTGACTCACCCC
DNA 2: GGGGTGAGTCACGCG
On to B1, for which the dissociation constant Kd in [1] is 3490 ± 140 nM; in series [2], 890 ± 30 nM; in series [3], 600 ± 30 nM; in [4], 6700 ± 410 nM; in series [5], 1040 ± 40 nM; in [6], 1220 ± 150 nM. The Kd in series [7] came out at 3720 ± 360 nM; in series [8], 1540 ± 50 nM; with Jun-Jun bZIP K268A, 400 ± 20 nM; in series [9], 1790 ± 20 nM; in [10], 1500 ± 80 nM; in [11], 460 ± 20 nM. Besides, the dissociation constant (Kd) in series [12] was determined as 610 ± 50 nM; in [13], 2460 ± 30 nM; in series [14], 1740 ± 30 nM; in series [15] it was 3560 ± 130 nM.
